Our source for the fraction in the pellet (pellet relative to pellet plus supernatant) values is publication PMC6706469.

Experiment [1] addresses P34 (trypanosome-specific protein), endogenous (Trypanosoma brucei (endogenous in T. brucei cells)). The experiment can be described thus: co-IP; whole-cell extract of 3×Ty-TbL11 T. brucei cells, without RNase A; beads with antibody to the target (anti-P34/P37, anti-TbL5 or anti-TbRpf2); anti-Ty Western blot of pellet and supernatant; amount in the pellet relative to pellet plus supernatant.

Experiment [2] addresses P37 (trypanosome-specific protein), endogenous (Trypanosoma brucei (endogenous in T. brucei cells)). The experiment is described as above.
Experiment [3] addresses TbL5 (Trypanosoma brucei ribosomal protein L5), endogenous (Trypanosoma brucei (endogenous in T. brucei cells)). The description is as above.
The target of experiment [4] is TbRpf2 (Trypanosoma brucei homologue of Rpf2), endogenous (Trypanosoma brucei (endogenous in T. brucei cells)). The description is as above.
The target of experiment [5] is P34 (trypanosome-specific protein), endogenous (Trypanosoma brucei (endogenous in T. brucei cells)). The experiment in a line: co-IP; whole-cell extract of 3×Ty-TbL11 T. brucei cells, with RNase A added to digest cellular RNA; beads with antibody to the target (anti-P34/P37, anti-TbL5 or anti-TbRpf2); anti-Ty Western blot of pellet and supernatant; amount in the pellet relative to pellet plus supernatant.

Experiment [6] has as its target P37 (trypanosome-specific protein), endogenous (Trypanosoma brucei (endogenous in T. brucei cells)). The description is as above.
The target in experiment [7] is TbL5 (Trypanosoma brucei ribosomal protein L5), endogenous (Trypanosoma brucei (endogenous in T. brucei cells)). Described as above.
For experiment [8], the target named is TbRpf2 (Trypanosoma brucei homologue of Rpf2), endogenous (Trypanosoma brucei (endogenous in T. brucei cells)). The experiment is described as above.
In experiment [9] the target is Recombinant P34 (Trypanosoma brucei). The experiment in a line: co-IP; in vitro, recombinant TbL11 incubated with the recombinant target, without 5S rRNA; precipitated with antibody to the target; anti-His Western blot; amount in the pellet relative to pellet plus supernatant. On the technique in general: Immunoblotting shows a protein as a band on a membrane.
Experiment [10] deals with Recombinant TbL5 (Trypanosoma brucei). The description is as above.
Experiment [11] deals with Recombinant TbRpf2 (Trypanosoma brucei). Described as above.
Experiment [12] deals with Recombinant P34 (Trypanosoma brucei). The experiment can be described thus: co-IP; in vitro, recombinant TbL11 incubated with the recombinant target, with in vitro-transcribed 5S rRNA added; precipitated with antibody to the target; anti-His Western blot; amount in the pellet relative to pellet plus supernatant.
The target in experiment [13] is Recombinant TbL5 (Trypanosoma brucei). Described as above.
The target in experiment [14] is Recombinant TbRpf2 (Trypanosoma brucei). Described as above.

For “3×Ty-TbL11 (Ty-tagged Trypanosoma brucei ribosomal protein L11) (natural protein)”, the fraction in the pellet (pellet relative to pellet plus supernatant) amounted to 0.16 in [1]; 0.16 in [2]; 0.53 in [3]; 0.07 in experiment [4]; 0.53 in experiment [5]; 0.53 in experiment [6]. For the same substance, the figures for the fraction in the pellet (pellet relative to pellet plus supernatant) in [7] and in experiment [8] were 0.67 and 0.58, respectively.
Take “Recombinant TbL11 (Trypanosoma brucei ribosomal protein L11) (natural protein)”: the fraction in the pellet (pellet relative to pellet plus supernatant) was found to be 0.96 in [9]; 0.92 in experiment [10]; 0.86 in [11]; 0.85 in [12]; 0.9 in [13]; 0.83 in experiment [14].
